Results on three molecules are retold here after PMC4457943.

Read-outs that look alike come from different tables or passages of the source.

Experiment in all cases: FRET or BRET
The target in assay [1] is MHC class II glycoprotein (HLA-DR) (human (endogenous in Kit225/IL-9R and MT-2)).
Assay [2] addresses MHC class I heavy chain (human (endogenous in Kit225/IL-9R and MT-2)) (UniProt P04439).
The target in assay [3] is MHC class II glycoprotein (HLA-DR) (human (endogenous in Kit225/IL-9R and MT-2)). The source holds these as a separate data set.
Assay [4] deals with MHC class I heavy chain (human (endogenous in Kit225/IL-9R and MT-2)) (UniProt P04439). The source holds these as a separate data set.

Regarding “IL-2 receptor α chain (IL-2Rα) (from UniProt P01589 22-272)”, the FRET efficiency E (%) is 21.9% in assay [1], 21.7% in assay [2], 11.9% in assay [3] and 22.5% in assay [4].

B1: interleukin-9 receptor α-subunit (IL-9Rα), stably transfected in Kit225/IL-9R cells (receptor)
chain: SVTGEGQGPRSRTFTCLTNNILRIDCHWSAPELGQGSSPWLLFTSNQAPGGTHKCILRGSECTVVLPPEAVLVPSDNFTITFHHCMSGREQVSLVDPEYLPRRHVKLDPPSDLQSNISSGHCILTWSISPALEPMTTLLSYELAFKKQEEAWEQAQHRDHIVGVTWLILEAFELDPGFIHEARLRVQMATLEDDVVEEERYTGQWSEWSQPVCFQAPQRQGPLIPPWGWPGNTLVAVSIFLLLTGPTYLLFKLSPRVKRIFYQNVPSPAMFFQPLYSVHNGNFQTWMGAHGAGVLLSQDCAGTPQGALEPCVQEATALLTCGPARPWKSVALEEEQEGPGTRLPGNLSSEDVLPAGCTEWRVQTLAYLPQEDWAPTSLTRPAPPDSEGSRSSSSSSSSNNNNYCALGCYGGWHLSALPGNTQSSGPIPALACGLSCDHQGLETQQGVAWVLAGHCQRPGLHEDLQGMLLPSVLSKARSWTF
With B1, the FRET efficiency E (%) turned out to be 15.9% in assay [1] and 17.2% in assay [2].

B2: interleukin-9 receptor α-subunit (IL-9Rα), endogenous in MT-2 cells (receptor)
chain: B1 chain
For the molecule B2, the results for the FRET efficiency E (%) in assay [1] and in assay [2] were 10.2% and 13.5%, respectively.
